The values that follow come from patent publication US20060019324A1.

The target in data set [1] is PknB1-279 (His-tagged catalytic kinase core of the Ser/Thr protein kinase PknB, Rv0014c, aa 1-279) (Mycobacterium tuberculosis) (UniProt P9WI81). The experiment in a line: cell-based or functional assay.
In data set [2] the target is T1, PknB1-279 (His-tagged catalytic kinase core of the Ser/Thr protein kinase PknB, Rv0014c, aa 1-279), P9WI81.
T1 chain: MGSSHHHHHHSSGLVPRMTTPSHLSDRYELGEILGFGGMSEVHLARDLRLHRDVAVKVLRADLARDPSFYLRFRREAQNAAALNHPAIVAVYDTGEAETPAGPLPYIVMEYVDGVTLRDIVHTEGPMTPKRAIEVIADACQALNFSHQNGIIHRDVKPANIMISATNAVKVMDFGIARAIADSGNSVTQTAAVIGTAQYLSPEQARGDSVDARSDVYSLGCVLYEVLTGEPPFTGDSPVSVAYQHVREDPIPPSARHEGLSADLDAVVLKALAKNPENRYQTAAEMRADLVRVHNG

In the case of “PstP1-240 (His-tagged catalytic domain of the Ser/Thr protein phosphatase PstP, Rv0018c, aa 1-240) (from UniProt P9WHW5 1-240) (enzyme)”, in data set [1], the MALDI-TOF mass of PknB1-279 after treatment with PstP or alkaline phosphatase: phosphate groups removed (phosphate groups) turned out to be 3.

B1: PstP1-240 (His-tagged catalytic domain of the Ser/Thr protein phosphatase PstP, Rv0018c, aa 1-240) (protein)
chain: MARVTLVLRYAARSDRGLVRANNEDSVYAGARLLALADGMGGHAAGEVASQLVIAALAHLDDDEPGGDLLAKLDAAVRAGNSAIAAQVEMEPDLEGMGTTLTAILFAGNRLGLVHIGDSRGYLLRDGELTQITKDDTFVQTLVDEGRITPEEAHSHPQRSLIMRALTGHEVEPTLTMREARAGDRYLLCSDGLSDPVSDETILEALQIPEVAESAHRLIELALRGGGPDNVTVVVADVVD
On to B1, for which, in data set [2], the “dephosphorylation of [33P]-autophosphorylated PknB1-279 by PstP, SDS-PAGE and autoradiography, with or without MnCl2” value is given as “PstP is capable of dephosphorylating PknB”; the “kinase activity of PknB on MBP (thio-γATP) after preincubation with PstP” value is recorded as “prior dephosphorylation of PknB by PstP inhibits kinase activity on MBP”.
